This experiment addresses Human interleukin-2 (IL-2) (human) (UniProt P60568). Kind of experiment: SPR (BIAcore 3000), data not shown. On the technique in general: In SPR one partner is held on a chip, and binding of the other changes the refractive index at the surface.

The Kd is the equilibrium constant for the complex coming apart. High values mean a looser complex, low ones a tighter complex.

In the case of “oriented (Or) Fab'602: Fab' fragment of MAB602 biotinylated in the hinge region”, the Kd turned out to be 0.1 nM. In other words, the sub-nanomolar range.

For the origin of these results see US20070293659A1.
